Key:
[1] = biological target: T1, human FolR1 ECD-AcTev-Fcknob-Avi tag + Fc hole, biotinylated monomeric Fc fusion (human, UniProt P0DOX5 223-449 = IgG part); assay: SPR ProteOn, Fab analyte;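 also: recombinant antigens immobilized, purified Fab two-fold dilutions injected in parallel channels, 200 s association and 600 s dissociation, buffer-only channel as in-line reference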
T1 construct: also called huFolR1; huFolR1-Fc

[2] = biological target: T2, cynomolgus FolR1 ECD-AcTev-Fcknob-Avi tag + Fc hole, biotinylated monomeric Fc fusion (cynomolgus, UniProt P0DOX5 223-449 = IgG part); assay: SPR ProteOn, Fab analyte;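 also: recombinant antigens immobilized, purified Fab two-fold dilutions injected in parallel channels, 200 s association and 600 s dissociation, buffer-only channel as in-line reference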
T2 construct: also called cyFolR1; cyno FolR1-Fc

[3] = biological target: T3, murine FolR1 ECD-AcTev-Fcknob-Avitag + Fc hole, biotinylated monomeric Fc fusion (murine, UniProt P0DOX5 223-449 = IgG part); assay: SPR ProteOn, Fab analyte
T3 construct: also called muFolR1; murine FolR1-Fc

[4] = biological target: T4, human FolR2 ECD-AcTev-Fcknob-Avi tag + Fc hole, biotinylated monomeric Fc fusion (human, UniProt P0DOX5 223-449 = IgG part); assay: SPR ProteOn, Fab analyte;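 also: recombinant antigens immobilized, purified Fab two-fold dilutions injected in parallel channels, 200 s association and 600 s dissociation, buffer-only channel as in-line reference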
T4 construct: also called huFolR2; FolR2-Fc

[5] = biological target: T5, human FolR3 ECD-AcTev-Fcknob-Avi tag + Fc hole, biotinylated monomeric Fc fusion (human, UniProt P0DOX5 223-449 = IgG part); assay: SPR ProteOn, Fab analyte;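 also: recombinant antigens immobilized, purified Fab two-fold dilutions injected in parallel channels, 200 s association and 600 s dissociation, buffer-only channel as in-line reference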
T5 construct: also called huFolR3; FolR3-Fc

[6] = biological target: T3, murine FolR1 ECD-AcTev-Fcknob-Avitag + …; assay: SPR, IgG single injection
[7] = biological target: human FolR2 on transiently transfected HEK cells (human, UniProt P14207 17-230); assay: flow cytometry on HEK cells transiently transfected with human FolR2, anti-human secondary antibody; concentration not given
[8] = biological target: T4, human FolR2 ECD-AcTev-Fcknob-Avi tag + …; assay: SPR, IgG single injection
[9] = biological target: T5, human FolR3 ECD-AcTev-Fcknob-Avi tag + …; assay: SPR, IgG single injection
[10] = biological target: T6, cynomolgus Tim3 (ELISA) (cynomolgus, UniProt A0A2K5U3G7 22-193); assay: ELISA, cyno Tim3
T6 construct: also called Biochem Cyno; cyno TIM3
T6 sequence: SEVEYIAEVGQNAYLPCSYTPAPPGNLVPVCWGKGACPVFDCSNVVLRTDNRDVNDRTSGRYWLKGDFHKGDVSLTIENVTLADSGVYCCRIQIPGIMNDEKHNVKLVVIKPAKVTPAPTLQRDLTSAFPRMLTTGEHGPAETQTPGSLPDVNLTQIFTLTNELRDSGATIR

[11] = biological target: T7, Tim3-ECD-His-Biotin (human, UniProt Q8TDQ0 22-202); assay: ELISA, human Tim3
T7 construct: also called human Tim3 (ELISA); Biochem Human

[12] = biological target: T8, human TIM-3 on cells (human, UniProt Q8TDQ0 22-301); assay: cell ELISA, CHO-Tim3
T8 construct: also called CHO-Tim3; rec CHOK1 cells expressing huTIM-3

[13] = biological target: T6, cynomolgus Tim3 (ELISA); assay: ELISA, cyno Tim3; EC50 relative to the sample's max value
[14] = biological target: T7, Tim3-ECD-His-Biotin; assay: ELISA, human Tim3; EC50 relative to the sample's max value
[15] = biological target: T8, human TIM-3 on cells; assay: cell ELISA, CHO-Tim3; EC50 relative to the sample's max value
[16] = biological target: T3, murine FolR1 ECD-AcTev-Fcknob-Avitag + …; assay: SPR ProteOn, Fab analyte; remark: listed apart in the source

human FolR2 on transiently transfected HEK cells, sequence (P14207 17-230 limits assumed): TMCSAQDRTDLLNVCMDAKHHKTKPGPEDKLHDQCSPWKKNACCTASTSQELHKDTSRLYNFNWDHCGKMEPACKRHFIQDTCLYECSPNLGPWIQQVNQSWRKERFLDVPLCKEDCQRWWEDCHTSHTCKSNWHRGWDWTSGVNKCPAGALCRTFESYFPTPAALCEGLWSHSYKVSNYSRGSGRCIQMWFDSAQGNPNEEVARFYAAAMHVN

B1: 15B6 Fab (Fab, V domains shown)
VH: QVQLVQSGAEVKKPGASVKVSCKASGYTFTSYYMHWVRQAPGQGLEWMGIINPSGGSTSYAQKFQGRVTMTRDTSTSTVYMELSSLRSEDTAVYYCARNYYIGIVPFDYWGQGTLVTVSS
VL: QAVVTQEPSLTVSPGGTVTLTCGSSTGAVTTSNYANWVQEKPGQAFRGLIGGTNKRAPGTPARFSGSLLGGKAALTLSGAQPEDEAEYYCALWYSNLWVFGGGTKLTVL
For B1, the Kd [1] was 19.1 nM, the Kd [2] was 13.9 nM and the binding result [3] was “no binding”. B1: no binding [4]; no binding [5].

B2: 16F12 Fab (Fab, V domains shown)
VH: QVQLVQSGAEVKKPGASVKVSCKASGYTFTSYYMHWVRQAPGQGLEWMGIINPSGGSTSYAQKFQGRVTMTRDTSTSTVYMELSSLRSEDTAVYYCARNFTVLRVPFDYWGQGTLVTVSS
VL: QAVVTQEPSLTVSPGGTVTLTCGSSTGAVTTSNYANWVQEKPGQAFRGLIGGTNKRAPGTPARFSGSLLGGKAALTLSGAQPEDEAEYYCALWYSNLWVFGGGTKLTVL
With B2 the Kd [1] was 68 nM, the Kd [2] was 90.9 nM and the binding result [3] was “no binding”. B2: no binding [4]; no binding [5].

B3: 16D5 Fab (Fab, V domains shown)
VH: not shown
VL: QAVVTQEPSLTVSPGGTVTLTCGSSTGAVTTSNYANWVQEKPGQAFRGLIGGTNKRAPGTPARFSGSLLGGKAALTLSGAQPEDEAEYYCALWYSNLWVFGGGTKLTVL
B3: no binding [3]; no binding [4]; no binding [5].

B4: 21G8 Fab (Fab, V domains shown)
VH: not shown
VL: QAVVTQEPSLTVSPGGTVTLTCGSSTGAVTTSNYANWVQEKPGQAFRGLIGGTNKRAPGTPARFSGSLLGGKAALTLSGAQPEDEAEYYCALWYSNLWVFGGGTKLTVL
B4: no binding [3].

B5: 21G8 IgG (antibody, V domains shown)
VH: not shown
VL: QAVVTQEPSLTVSPGGTVTLTCGSSTGAVTTSNYANWVQEKPGQAFRGLIGGTNKRAPGTPARFSGSLLGGKAALTLSGAQPEDEAEYYCALWYSNLWVFGGGTKLTVL
notes: human IgG1
B5: no binding (tested: 500 nM) [6]; binds [7].

B6: 21A5 IgG (antibody, V domains shown)
VH: not shown
VL: QAVVTQEPSLTVSPGGTVTLTCGSSTGAVTTSNYANWVQEKPGQAFRGLIGGTNKRAPGTPARFSGSLLGGKAALTLSGAQPEDEAEYYCALWYSNLWVFGGGTKLTVL
notes: human IgG1
B6: no binding (tested: 500 nM) [6]; no binding (tested: 500 nM) [8]; no binding [7].

B7: 16D5 IgG (antibody, V domains shown)
VH: not shown
VL: QAVVTQEPSLTVSPGGTVTLTCGSSTGAVTTSNYANWVQEKPGQAFRGLIGGTNKRAPGTPARFSGSLLGGKAALTLSGAQPEDEAEYYCALWYSNLWVFGGGTKLTVL
notes: human IgG1
B7: no binding (tested: 500 nM) [6]; no binding (tested: 500 nM) [8]; no binding (tested: 500 nM) [9]. B7: no binding [7].

B8: aTim3 0018MutNQ (antibody, V domains shown)
VH: QVTLKESGPGILQPSQTLSLTCSFSGFSLSTSGMSVGWIRQPSGKGLEWLAHIWLNDDVFFNPALKRRLTISKDTSNNQVFLQIASVVTADTATYYCVRANGYLYALDYWGQGISVTVSS
VL: QIVLTQSPAIMSASPGQKVTITCSASSSVQYTQWYQQKLGSSPKLWIYDAFKLAPGVPARFSGSGTGTSYSLTISSMEAEDAASYFCHQWSSYPWTFGGGTKLEIK
notes: also called aT3m3 0018MutNQ
For B8, the inflexion point [10] was 10.8 ng/mL, the inflexion point [11] was 10.8 ng/mL and the inflexion point [12] was 12.8 ng/mL. The EC50 [13] was 0.0132 µg/mL, the EC50 [14] was 12 ng/mL and the EC50 [15] was 0.0134 µg/mL.

B9: aTim3 0016 MutNQ (antibody, V domains shown)
VH: QVTLKESGPGILQPSQTLRLTCSFSGFSLSTSGMSVGWIRQPSGKGLEWLAHIWLNDDVFFNPALKSRLTISKDTSNNQVFLQIASVVTADTATYYCVRANGYLYALDYWGQGTSVTVSS
VL: QIVLTQSPAIMSASPGQKVTITCSASSSVQYTQWYQQKLGSSPKLWIYDAFKLAPGVPARFSGSGTGTSYSLTISSMEAEDAASYFCHQWSSYPWTFGGGTKLEIK
B9 showed an inflexion point [10] of 5.7 ng/mL, an inflexion point [11] of 5.7 ng/mL and an inflexion point [12] of 5.4 ng/mL. It also gave an EC50 [13] of 0.0083 µg/mL, an EC50 [14] of 7.6 ng/mL and an EC50 [15] of 0.0068 µg/mL.

B10: aTim3 0016MutNS (antibody, V domains shown)
VH: QVTLKESGPGILQPSQTLRLTCSFSGFSLSTSGMSVGWIRQPSGKGLEWLAHIWLNDDVFFNPALKSRLTISKDTSNNQVFLQIASVVTADTATYYCVRANGYLYALDYWGQGTSVTVSS
VL: QIVLTQSPAIMSASPGQKVTITCSASSSVSYTQWYQQKLGSSPKLWIYDAFKLAPGVPARFSGSGTGTSYSLTISSMEAEDAASYFCHQWSSYPWTFGGGTKLEIK
Work on B10 yielded an inflexion point [10] of 5.5 ng/mL, an inflexion point [11] of 6.5 ng/mL and an inflexion point [12] of 8.5 ng/mL. The EC50 [13] was 0.0097 µg/mL, the EC50 [14] was 8.5 ng/mL and the EC50 [15] was 0.0091 µg/mL.

B11: aTim3 0018MutNS (antibody, V domains shown)
VH: QVTLKESGPGILQPSQTLSLTCSFSGFSLSTSGMSVGWIRQPSGKGLEWLAHIWLNDDVFFNPALKRRLTISKDTSNNQVFLQIASVVTADTATYYCVRANGYLYALDYWGQGISVTVSS
VL: QIVLTQSPAIMSASPGQKVTITCSASSSVSYTQWYQQKLGSSPKLWIYDAFKLAPGVPARFSGSGTGTSYSLTISSMEAEDAASYFCHQWSSYPWTFGGGTKLEIK
notes: also called aT3m3 0018MutNS
Work on B11 yielded an inflexion point [10] of 6.5 ng/mL, an inflexion point [11] of 6.5 ng/mL and an inflexion point [12] of 11.1 ng/mL. For the same binder, the EC50 [13] was 0.0119 µg/mL, the EC50 [14] was 10.3 ng/mL and the EC50 [15] was 0.0112 µg/mL.

B12: 11F8 Fab (Fab, V domains shown)
VH: QVQLVQSGAEVKKPGSSVKVSCKASGGTFSSYAISWVRQAPGQGLEWMGGIIPIFGTANYAQKFQGRVTITADKSTSTAYMELSSLRSEDTAVYYCARAVFYRAWYSFDYWGQGTTVTVSS
VL: DIQMTQSPSTLSASVGDRVTITCRASQSISSWLAWYQQKPGKAPKLLIYDASSLESGVPSRFSGSGSGTEFTLTISSLQPDDFATYYCQQYTSPPPTFGQGTKVEIK
With B12 the Kd [16] was 1200 nM.

B13: 21A5 Fab (Fab, V domains shown)
VH: not shown
VL: QAVVTQEPSLTVSPGGTVTLTCGSSTGAVTTSNYANWVQEKPGQAFRGLIGGTNKRAPGTPARFSGSLLGGKAALTLSGAQPEDEAEYYCALWYSNLWVFGGGTKLTVL
B13: no binding [3]; no binding [4].

B14: 5D9 Fab (Fab, V domains shown)
VH: QVQLVQSGAEVKKPGASVKVSCKASGYTFTSYYMHWVRQAPGQGLEWMGIINPSGGSTSYAQKFQGRVTMTRDTSTSTVYMELSSLRSEDTAVYYCARSYIDMDYWGQGTLVTVSS
VL: EIVLTQSPGTLSLSPGERATLSCRASQSVSSSYLAWYQQKPGQAPRLLIYGASSRATGIPDRFSGSGSGTDFTLTISRLEPEDFAVYYCQQDNWSPTFGQGTKVEIK
B14: no binding [16].

B15: 6B6 Fab (Fab, V domains shown)
VH: QVQLVQSGAEVKKPGASVKVSCKASGYTFTSYYMHWVRQAPGQGLEWMGIINPSGGSTSYAQKFQGRVTMTRDTSTSTVYMELSSLRSEDTAVYYCARSYVDMDYWGQGTLVTVSS
VL: EIVLTQSPGTLSLSPGERATLSCRASQSVSSSYLAWYQQKPGQAPRLLIYGASSRATGIPDRFSGSGSGTDFTLTISRLEPEDFAVYYCQQDIWSPTFGQGTKVEIK
B15: no binding [16].
